From publication PMC3707205 come the findings set out here.

The experiment has as its target NHR2-mH (TAT- and NLS-free NHR2 protein). Nature of the experiment: cross-linking; 20 μM protein in PBS, 0.01% glutaraldehyde, room temperature, various times; SDS-PAGE, coomassie staining.

As a reminder, the stoichiometry N is the number of molecules, sites or subunits per partner or assembly.

With “NHR2-mH (TAT- and NLS-free NHR2 protein) (domain or fragment)”, the stoichiometry N was 4.
